Results as given in US20110117206A1, “PHOSPHOPEPTIDES AND USE OF THE SAME” (PLANT BIOSCIENCE LIMITED, priority 2008, published 2011).

What was measured:
[1] = SAXS and structural model of calcium phosphate nanoclusters; type: physicochemical; details: from modelling of the structure
Description: For the OPN 1-149 nanocluster, a description of the peptide segment distribution around the core was considered which is more explicit than that provided by the core-shell model. The simplest block copolymer micelle model has been used in which a corona is formed by Gaussian chains attached by one end to a uniform spherical core. The nanoclusters were prepared either on the SAXS station and measured immediately or were prepared 2 days previously to allow the system to come to equilibrium. The sample was then stored at room temperature and remeasured 5 months later during a later allocation of beamtime. […] The intensity averaged diffusion coefficient, D, was determined with a Malvern Zetasizer Nano instrument.
The results of the SAXS measurements on nanocluster sub-samples measured as a function of time after the addition of the urease are summarised in FIGS. 6a and 6b. […] According to the calculated degree of reaction of the phosphate centres and to the analysis of the correlation function given by the dynamic light scattering studies, the equilibrium state has a significant excess of free peptide, the scattering from which, although negligible at low q, has to be taken account of in modelling the SAXS at higher q. […]

[2] = Ca2+ binding isotherm (Ca ion selective electrode) fitted with semi-empirical binding model; details: 6.4 = high affinity dianionic phosphoseryl sites; listed as OPN peptide
Source text: To model the chemical species in the OPN 1-149 nanocluster solution requires the calculation of Ca ion binding to the free peptide at any pH in the range 5.0-8.0. A semi-empirical model was used to describe the binding isotherms obtained previously for the β-casein 1-25 phosphopeptide in this pH range and the same model was adapted to fit the binding isotherm of OPN 1-149 measured at pH 7.0. The rescaled model was then used to predict binding at any other value of the pH. Binding of Ca ions to the β-casein 1-25 peptide is predominantly to 4 phosphorylated residues and, to a lesser extent, to 7 Glu residues and the C-terminus.
Fitting of the experimental isotherms was done to an equation of the form
where the summation is over all binding sites with Ca ion association constants Ka,i. The function Ni(pH) describes the number of sites of type i as a function of pH and φi is the degree of phosphorylation. It was assumed, that all the phosphorylated sites had the average degree of phosphorylation φ. The number of dianionic phosphoseryl sites at a given pH is given by
The binding behaviour of β-casein has shown that one Ca ion is bound much more strongly than the rest, so the model for binding to the phosphate dianionic groups allowed for two pKs and two Ca ion association constants. The phosphorylated sites have a reduced affinity for Ca ions when they become protonated and were treated as having the same low affinity as the carboxyl groups. […]
The Ca^2+ binding isotherm of peptides recovered from fraction F3a was determined by measuring the concentration of free Ca ions with a Ca ion selective electrode after successive small additions of a stock solution of 100 mM Ca(NO3)2 to a solution containing 25 mg ml^−1 of F3a, buffered to pH 7.0 with 20 mM P, and 50 mM KNO3. […] The calculated OPN 1-149 isotherm was obtained by a separate fitting of the single isotherm employing a model with two pKs and association constants but keeping as many as possible of the constants from the casein model.

## OPN 1-149: N-terminal osteopontin phosphopeptide fragment from bovine milk, probably formed by plasmin; gel filtration fraction F3a
[1]
  number of peptide chains on a nanocluster: about 2618
[2]
  pKs fitted to the OPN 1-149 isotherm: 6.4
